According to patent publication US11008403 (dated 2021):
Changes are numbered by the printed parent chain. Numbers in names are those of the source. Where “and” joins values, the source holds several entries; their conditions need not be identical. Equal entries are not always repeated.

B1: Mu16F6 Fab (antibody, V domains shown)
VH: DVQLQESGPGLVKPSQSLSLTCTVTGNSITSEYAWNWIRQFPGNKLEWMGYISYSGTTSYNPSLKSRISITRDTSKNQLFLQLNSVTTEDTATYFCARYGYGNPATRYFDVWGAGTTVTVSS
VL: DVQITQSPSYLTASPGETITINCRASKSISKYLAWYQEKPGKTNKLLIYSGSTLQSGIPSRFSGSGSGTDFTLTISNLEPEDFAMYYCQQHNEYPWTFGGGTKLEIK
B2: Hu16F6.v4 Fab (antibody, V domains shown)
VH: EVQLVESGPGLVKPSETLSLTCTVSGNSITSEYAWNWIRQPPGKGLEWIGYISYSGTTSYNPSLKSRVTISRDTSKNQLSLKLSSVTAADTAVYYCARYGYGNPATRYFDVWGQGTLVTVSS
VL: DIQMTQSPSSLSASVGDRVTITCRASKSISKYLAWYQQKPGKTNKLLLYSGSTLQSGVPSRFSGSGSGTDYTLTISSLQPEDFATYYCQQHNEYPWTFGQGTKVEIK
B3: Mu15G11 Fab (antibody, V domains shown)
VH: QVQLQQPGAELVKPGASVKLSCKASGYTFTSYWMHWVKQRPGQGLEWIGEINPTNGRTNYIEKFKSKATLTVDKSSSTAYMQLSSLTSEDSAVYYCARGTRAYHYWGQGTSVTVSS
VL: DIQMTQSPASLSVSVGETVTITCRASDNLYSNLAWYQQKQGKSPQLLVYDATNLADGVPSRFSGSGSGTQYSLKINSLQSEDFGTYYCQHFWGTPLTFGAGTKLELK
B4: Mu7A4 Fab (antibody, V domains shown)
VH: QVQLQQSGPELVRPGVSVKISCKGSGYTFTDYAMHWVKQSHAKSLEWIGGISTYFGRTNYNQKFKGRATMTVDKSSSTAYMELARLTSEDSALYYCARGLSGNYVMDYWGQGTSVTVSS
VL: DIVLTQSPASLAVSLGQRATISCRASESVDSYGNSFMHWYQQKPGQPPKLLIYRASNLESGIPARFSGSGSRTDFTLTINPVEADDVATYYCQQSNEGPPTFGGGTKLEIK
B5: hu15G11.v5 HC Y27A (antibody, V domains shown)
VH: EVQLVQSGAEVKKPGASVKVSCKASGATFTSYWMHWVRQAPGQRLEWIGEINPTNGRTNYIEKFKSRATLTVDKSASTAYMELSSLRSEDTAVYYCARGTRAYHYWGQGTMVTVSS
VL: DIQMTQSPSSLSASVGDRVTITCRASDNLYSNLAWYQQKPGKSPKLLVYDATNLADGVPSRFSGSGSGTDYTLTISSLQPEDFATYYCQHFWGTPLTFGQGTKVEIK
B6: hu15G11.v5 HC N52A (antibody, V domains shown)
VH: B5 VH with A27Y, N52A
VL: B5 VL
B7: hu15G11.v5 HC T53A (antibody, V domains shown)
VH: B5 VH with A27Y, T54A
VL: B5 VL
B8: hu15G11.v5 LC D56A (antibody, V domains shown)
VH: B5 VH with A27Y
VL: B5 VL with D56A
B9: hu15G11.v5 LC L33A (antibody, V domains shown)
VH: B5 VH with A27Y
VL: B5 VL with L33A
B10: hu15G11.v5 HC W33A (antibody, V domains shown)
VH: B5 VH with A27Y, W33A
VL: B5 VL
B11: hu15G11.v5 HC M34A (antibody, V domains shown)
VH: B5 VH with A27Y, M34A
VL: B5 VL
B12: hu15G11.v5 LC L29A (antibody, V domains shown)
VH: B5 VH with A27Y
VL: B5 VL with L29A
B13: hu15G11.v5 LC T52A (antibody, V domains shown)
VH: B5 VH with A27Y
VL: B5 VL with T52A
B14: hu15G11.v5 HC S31A (antibody, V domains shown)
VH: B5 VH with A27Y, S31A
VL: B5 VL
B15: hu15G11.v5 HC Y32A (antibody, V domains shown)
VH: B5 VH with A27Y, Y32A
VL: B5 VL
B16: hu15G11.v5 LC N32A (antibody, V domains shown)
VH: B5 VH with A27Y
VL: B5 VL with N32A
B17: hu15G11.v5 HC T30A (antibody, V domains shown)
VH: B5 VH with A27Y, T30A
VL: B5 VL
B18: hu15G11.v5 LC S31A (antibody, V domains shown)
VH: B5 VH with A27Y
VL: B5 VL with S31A
B19: hu15G11.v5 LC Y30A (antibody, V domains shown)
VH: B5 VH with A27Y
VL: B5 VL with Y30A
B20: hu15G11.v5 HC F29A (antibody, V domains shown)
VH: B5 VH with A27Y, F29A
VL: B5 VL
B21: hu15G11.v5 LC N53A (antibody, V domains shown)
VH: B5 VH with A27Y
VL: B5 VL with N53A
B22: hu15G11.v5 LC D50A (antibody, V domains shown)
VH: B5 VH with A27Y
VL: B5 VL with D50A
B23: hu15G11.v5 LC D27A (antibody, V domains shown)
VH: B5 VH with A27Y
VL: B5 VL with D27A
B24: hu15G11.v5 HC G26A (antibody, V domains shown)
VH: B5 VH with G26A, A27Y
VL: B5 VL
B25: hu15G11.v5 LC N28A (antibody, V domains shown)
VH: B5 VH with A27Y
VL: B5 VL with N28A
B26: hu15G11.v5 HC T28A (antibody, V domains shown)
VH: B5 VH with A27Y, T28A
VL: B5 VL
B27: hu15G11.v5 HC E50A (antibody, V domains shown)
VH: B5 VH with A27Y, E50A
VL: B5 VL
B28: hu15G11.v5 LC L54A (antibody, V domains shown)
VH: B5 VH with A27Y
VL: B5 VL with L54A
B29: hu15G11.v5 IgG (antibody, V domains shown)
VH: B5 VH with A27Y
VL: B5 VL
B30: hu15G11.v5 HC G49A (antibody, V domains shown)
VH: B5 VH with A27Y, G49A
VL: B5 VL
B31: hu15G11.v5 LC S26A (antibody, V domains shown)
VH: B5 VH with A27Y
VL: B5 VL with S26A
B32: hu15G11.v5 LC R24A (antibody, V domains shown)
VH: B5 VH with A27Y
VL: B5 VL with R24A
B33: hu15G11.v5 HC I51A (antibody, V domains shown)
VH: B5 VH with A27Y, I51A
VL: B5 VL

Molecular target: human TfR ECD (human)
Experiment: SPR

Sequence of human TfR ECD (human) (chain, as listed by the source): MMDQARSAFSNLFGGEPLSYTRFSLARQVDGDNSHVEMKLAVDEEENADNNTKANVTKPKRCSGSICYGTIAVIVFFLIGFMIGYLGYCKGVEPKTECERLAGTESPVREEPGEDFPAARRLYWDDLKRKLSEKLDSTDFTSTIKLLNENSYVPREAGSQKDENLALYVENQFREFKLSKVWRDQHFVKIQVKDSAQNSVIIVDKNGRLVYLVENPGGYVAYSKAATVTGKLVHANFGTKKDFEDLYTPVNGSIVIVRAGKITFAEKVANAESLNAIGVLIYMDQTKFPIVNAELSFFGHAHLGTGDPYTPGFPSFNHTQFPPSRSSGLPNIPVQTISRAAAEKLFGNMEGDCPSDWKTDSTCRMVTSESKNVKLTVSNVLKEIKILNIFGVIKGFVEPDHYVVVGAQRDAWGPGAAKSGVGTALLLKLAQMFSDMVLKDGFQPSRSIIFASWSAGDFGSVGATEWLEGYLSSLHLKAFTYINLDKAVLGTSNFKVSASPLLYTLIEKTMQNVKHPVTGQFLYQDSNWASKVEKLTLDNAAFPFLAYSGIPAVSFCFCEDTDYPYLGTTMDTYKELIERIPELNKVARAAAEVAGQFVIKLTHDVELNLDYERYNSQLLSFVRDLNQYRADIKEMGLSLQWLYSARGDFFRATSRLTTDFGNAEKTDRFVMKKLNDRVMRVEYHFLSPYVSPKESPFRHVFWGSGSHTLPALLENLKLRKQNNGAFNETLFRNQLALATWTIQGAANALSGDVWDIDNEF

Row | Binder | Kd [nM]
1 | B1 | 3.13
2 | B2 | 1.29
3 | B3 | 3.37
4 | B4 | 0.19

Molecular target: T1, cyno TfR ECD (cynomolgus)
T1 chain: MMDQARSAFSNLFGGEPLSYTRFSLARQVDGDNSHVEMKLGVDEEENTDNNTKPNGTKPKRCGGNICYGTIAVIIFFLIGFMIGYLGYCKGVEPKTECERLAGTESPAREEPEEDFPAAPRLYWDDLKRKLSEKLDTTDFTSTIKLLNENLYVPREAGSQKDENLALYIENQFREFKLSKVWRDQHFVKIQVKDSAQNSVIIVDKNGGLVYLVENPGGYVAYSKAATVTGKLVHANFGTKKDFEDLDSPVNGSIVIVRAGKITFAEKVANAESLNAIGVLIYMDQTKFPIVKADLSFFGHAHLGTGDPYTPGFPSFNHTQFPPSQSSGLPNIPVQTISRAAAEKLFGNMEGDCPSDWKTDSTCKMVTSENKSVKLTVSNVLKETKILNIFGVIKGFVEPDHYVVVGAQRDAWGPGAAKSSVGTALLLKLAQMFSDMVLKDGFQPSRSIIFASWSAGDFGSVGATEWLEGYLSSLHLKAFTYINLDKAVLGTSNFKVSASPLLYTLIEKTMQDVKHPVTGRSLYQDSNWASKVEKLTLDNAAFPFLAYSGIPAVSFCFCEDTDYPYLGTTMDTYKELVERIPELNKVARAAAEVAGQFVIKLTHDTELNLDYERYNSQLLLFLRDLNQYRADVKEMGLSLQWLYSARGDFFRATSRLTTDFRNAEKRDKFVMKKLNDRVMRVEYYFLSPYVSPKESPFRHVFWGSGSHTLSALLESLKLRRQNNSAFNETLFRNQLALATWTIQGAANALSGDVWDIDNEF
Experiment: SPR

Row | Binder | Kd
5 | B1 | 26.8 nM
6 | B2 | 24.7 nM
7 | B3 | 5.81 nM and 7.57 nM
8 | B4 | 0.741 nM

Molecular target: human TfR ECD (human)
Experiment: ELISA

Row | Binder | EC50 [ng/mL]
9 | B5 | 21.1
10 | B6 | 0.3
11 | B7 | 0.3
12 | B8 | 0.3
13 | B9 | 0.05
14 | B10 | 59.6
15 | B11 | 0.4
16 | B12 | 0.3
17 | B13 | 0.2
18 | B14 | 0.05
19 | B15 | 0.4
20 | B16 | 1.6
21 | B17 | 0.4
22 | B18 | 0.3
23 | B19 | 0.3
24 | B20 | 1.5
25 | B21 | 0.3
26 | B22 | 0.2
27 | B23 | 0.2
28 | B24 | 1.1
29 | B25 | 0.2
30 | B26 | 0.4
31 | B27 | 20.6
32 | B28 | 0.4
33 | B29 | 0.8
34 | B30 | 0.3
35 | B31 | 0.2
36 | B32 | 0.1
37 | B33 | 0.2

Molecular target: T1, cyno TfR ECD
Experiment: ELISA

Row | Binder | EC50 [ng/mL]
38 | B5 | 1470
39 | B6 | 0.9
40 | B7 | 0.7
41 | B8 | 0.5
42 | B9 | 0.1
43 | B10 | 362
44 | B11 | 1.1
45 | B12 | 0.9
46 | B13 | 0.3
47 | B14 | 0.1
48 | B15 | 1.4
49 | B16 | 4
50 | B17 | 0.9
51 | B18 | 0.7
52 | B19 | 1
53 | B20 | 12.5
54 | B21 | 0.6
55 | B22 | 0.5
56 | B23 | 0.8
57 | B24 | 6.1
58 | B25 | 0.8
59 | B26 | 0.8
60 | B27 | 410
61 | B28 | 0.5
62 | B29 | 1.8
63 | B30 | 1.1
64 | B31 | 0.6
65 | B32 | 0.4
66 | B33 | 0.6
